# Source: PMC7010293
# “And” between values parts separate entries of the source, which are not always exact repeats. Identical values can stand only once.
# Columns and labels:
# Test in all cases: SDS-PAGE under unheated, non-reducing conditions with Western blot
# [1] = molecular target: recombinant non-structural protein 1 (rNS1) of Dengue virus serotype 1, 6xHis-tagged (Dengue virus 1, Hawaii A strain)
# [2] = molecular target: recombinant non-structural protein 1 (rNS1) of Dengue virus serotype 2, 6xHis-tagged (Dengue virus 2, New Guinea C strain)
# [3] = molecular target: recombinant non-structural protein 1 (rNS1) of Dengue virus serotype 3, 6xHis-tagged (Dengue virus 3, Sri Lanka strain)
# [4] = molecular target: recombinant non-structural protein 1 (rNS1) of Dengue virus serotype 4, 6xHis-tagged (Dengue virus 4, TC25 strain)
# [5] = molecular target: recombinant non-structural protein 1 (rNS1) of Tick-borne encephalitis virus, 6xHis-tagged (Tick-borne encephalitis virus, Neudoerfl strain)
# [6] = molecular target: recombinant non-structural protein 1 (rNS1) of West Nile virus, RQ10NK, 6xHis-tagged (West Nile virus, NY99 strain)
# [7] = molecular target: recombinant non-structural protein 1 (rNS1) of Zika virus, 6xHis-tagged (Zika virus, SPH2015 strain)
substance,measurement,setting,value
"recombinant non-structural protein 1 (rNS1) of Dengue virus serotype 1, 6xHis-tagged (natural protein)",stoichiometry N,[1],2
"recombinant non-structural protein 1 (rNS1) of Dengue virus serotype 2, 6xHis-tagged (natural protein)",stoichiometry N,[2],2
"recombinant non-structural protein 1 (rNS1) of Dengue virus serotype 3, 6xHis-tagged (natural protein)",stoichiometry N,[3],2
"recombinant non-structural protein 1 (rNS1) of Dengue virus serotype 4, 6xHis-tagged (natural protein)",stoichiometry N,[4],2
"recombinant non-structural protein 1 (rNS1) of Tick-borne encephalitis virus, 6xHis-tagged (natural protein)",stoichiometry N,[5],2 and 6
"recombinant non-structural protein 1 (rNS1) of West Nile virus, RQ10NK, 6xHis-tagged (natural protein)",stoichiometry N,[6],2
"recombinant non-structural protein 1 (rNS1) of Zika virus, 6xHis-tagged (natural protein)",stoichiometry N,[7],2
